This is an account of results in patent US8440629B2, “Cyclic receptor-associated protein (RAP) peptides” (Raptor Pharmaceuticals Inc., priority 2007, dated 2013).

Positions count from the first letter of the chain named. Names may count otherwise.

For one test, the target named is T1, LRP2 CR34-36 (Homo sapiens, UniProt P98164).
T1 construct: a CR triplet from LRP2 (CR34-36); made in house; host or cells: E. coli BL21(DE3) CodonPlus-RIPL, pET30(+)a
Briefly: Solid phase binding assay. The conditions noted are these: highest ligand concentrations tested. The method, then:
(§1) All expression constructs were sequenced to verify insert sequences and the junctions with the expression vector. Each plasmid was then used to transform BL21(DE3) CodonPlus-RIPL™ cells (Stratagene). Expression of the CR proteins was induced in logarithmic growth-phase cells grown in LB supplemented with 34 μg/mL chloramphenicol, 12.5 μg/mL tetracycline and 15 μg/mL kanamycin by addition of 2 mM IPTG, followed by reduction in incubator temperature to 32° C. and incubation for 4 hours with agitation at […]. Cells were pelleted and resuspended, at 3.5% of the initial culture volume in 10 mM Tris-HCl pH 8, 100 mM NaH2PO4, 8M Urea. Resuspended cells were then frozen in liquid nitrogen, rapidly thawed to 37° C. and sonicated for 10 seconds at an amplitude setting of 60 using a Cole-Parmer CP-130 ultrasonic processor connected to a 3 mm probe. This procedure was repeated three times to effect complete lysis of the cells. Lysates were clarified by spinning twice at 10,000×g in a Sorvall RC-5 centrifuge for 20 minutes at 15° C. Ni-NTA columns (Qiagen Superflow™, 1.5 mL packed bed) were used to purify the CR proteins. Briefly, the resin was equilibrated with two column volumes of lysis buffer. The clarified lysate was then supplemented to 20 mM with imidazole and incubated with the equilibrated Ni-NTA resin overnight at 4° C. The flow-through was discarded. Columns were washed once with one column volume of lysis buffer and then three times with one column volume of TBS pH 8 supplemented with 20 mM imidazole. CR-loaded beads were then removed from the column and CR proteins eluted by incubating at room temperature for 30 minutes with one column volume of the same buffer containing 200 mM imidazole. This step was repeated once and the eluates pooled. Eluted CR protein solutions were then supplemented to 2 M urea, 10 mM CaCl2 and 5 mM DTT. Purified, denatured CR protein solutions were transferred to 3,500 MWCO Slide-A-Lyzer™ (Pierce) cassettes and sequentially dialyzed against a 200-fold excess of 50 mM Tris-HCl pH 8.5, 10 mM CaCl2, 1 mM reduced glutathione, 0.5 mM oxidized glutathione at room temperature overnight and then against TBS supplemented with 5 mM CaCl2 at 4° C. overnight. Protein concentrations were determined by Bradford assay and purity confirmed by SDS-PAGE with Coomassie Brilliant Blue staining.
(§2) Purified, refolded CR protein (1 μg) was bound to Nunc Maxisorp™ 96-well plates in TBS pH 8 supplemented with 5 mM CaCl2 (TBSC) overnight at 4° C. Wells were washed with TBSC and then blocked with TBSC containing 2% bovine serum albumin (BSA). RAP ligands were then incubated with the immobilized receptor at a range of concentrations for 2 hours in the above blocking buffer supplemented with 0.05% Tween-20 at room temperature. Control wells contained no added ligand. As an additional control, to determine whether the absence of calcium affected binding, 10 mM EGTA was included in the incubation medium for some samples. Wells were washed with TBSTC and bound ligands detected with polyclonal anti-RAP (BP41/42, 1:1,000, BioMarin). Excess primary antibody was removed and wells washed before incubation with the secondary antibody, HRP-conjugated goat anti rabbit IgG (Bio-Rad). After washing, TMB substrate solutions (Bio-Rad) were added to detect HRP. Color development was stopped with 1N HCl. Absorption at 450 nm was measured with a microplate spectrophotometer (Molecular Devices). Data were plotted and Kd values derived by non-linear regression with the assumption of single-site binding (GraphPad Prism).

A further test addresses T2, LRP2 CR3536 (Homo sapiens, UniProt P98164).
T2 construct: VLDLR CR78, LRP2 CR3536, LRP2 CR34-36 and MAT CR23; made in house; host or cells: E. coli BL21(DE3) CodonPlus-RIPL, pET30(+)a
The test can be described thus: Solid phase binding assay. Particulars: highest ligand concentrations tested. The method, then: as §1, §2

For test [1], the target named is T3, LRP2 CR89 Y1042W V1047D (WDWR) (Homo sapiens, UniProt P98164, V1048D/Y1043W).
T3 construct: two CR pairs from LRP2 (CR89, CR3435); made in house; host or cells: E. coli BL21(DE3) CodonPlus-RIPL, pET30(+)a
T3 sequence (P98164 1025-1102 Y1043W/V1048D): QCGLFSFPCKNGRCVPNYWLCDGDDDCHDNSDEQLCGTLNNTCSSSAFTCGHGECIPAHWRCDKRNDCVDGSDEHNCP
The test can be described thus: Solid phase binding assay, LRP2 CR89 mutant.
Text: (§3) Each amplified fragment was sequentially digested with BamHI and HindIII and then ligated into similarly digested pET30(+)a. The resulting plasmids encode proteins consisting of N-terminal hexahistidine and S-peptides fused to the CR fragment. Ligation reactions were transformed into XL-Blue MRF′ (Stratagene) by electroporation and plasmids isolated from single colonies. Three mutations, […], V1047D and R1088D, were introduced into the LRP2 CR89 expression plasmid both singly and in combination using Stratagene QuikChange II XL reagents and the primers: […]
as §2
(§4) One premise of this work was that amino acids at A, C, A′ and C′ within the calcium-binding loops of a CR pair were key determinants of binding affinity for RAP and would be similarly important for binding of RAP variants. To test this idea, mutant LRP2 CR89 were prepared in which the native, non-canonical residues at these positions were sequentially substituted with the non-native, canonical residues. As defined above, the A, C, A′, C′ string for LRP2 CR89 is YVWR. Mutants included LRP2 CR89 Y1042W (WVWR), LRP2 CR89 V1047D (YDWR), LRP2 CR89 R1088D (YVWD), LRP2 CR89 V1047D R1088D (YDWD), LRP2 CR89 Y1042W V1047D R1088D (WDWD), LRP2 CR89 Y1042W V1047D (WDWR), LRP2 CR89 Y1042W R1088D (WVWD). Binding to both RAP d3 and MegaRAP1 d3 were measured for each LRP2 CR89 mutant by solid-phase assay. Only the YVWD mutant retained significant binding to MegaRAP1 d3, with an approximate 2-fold loss of affinity relative to LRP2 CR89 (FIG. 6 and Table 3). […] The A′ position in LRP2 CR89 is a tryptophan, the canonical residue for wild-type RAP d3 binding, and was not mutated in our studies.

The next test has as its target T4, LRP2 CR89 V1047D (YDWR) (Homo sapiens, UniProt P98164, V1048D).
T4 construct: two CR pairs from LRP2 (CR89, CR3435); made in house; host or cells: E. coli BL21(DE3) CodonPlus-RIPL, pET30(+)a
T4 sequence (P98164 1022-1105 V1048D limits assumed): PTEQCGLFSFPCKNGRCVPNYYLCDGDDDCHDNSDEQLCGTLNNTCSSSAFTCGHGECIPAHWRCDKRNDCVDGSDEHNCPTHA
The test can be described thus: Solid phase binding assay, LRP2 CR89 mutant.
Text: as §3, §2, §4

T1 sequence (P98164 3838-3974 limits assumed): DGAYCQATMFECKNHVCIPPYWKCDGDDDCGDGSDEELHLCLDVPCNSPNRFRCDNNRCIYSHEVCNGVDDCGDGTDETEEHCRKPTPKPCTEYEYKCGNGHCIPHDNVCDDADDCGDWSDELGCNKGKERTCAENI
T2 sequence (P98164 3880-3974 limits assumed): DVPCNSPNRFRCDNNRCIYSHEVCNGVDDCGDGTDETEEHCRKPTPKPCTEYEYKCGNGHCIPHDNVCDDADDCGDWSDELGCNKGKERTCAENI

B1: RAP d3: third domain of human RAP, amino acids 201-319 of mature RAP, bacterially expressed with hexahistidine and S-peptide tags (SEQ ID NO: 92) (protein, listed as Homo sapiens)
chain: LDRLRRVSHQGYSTEAEFEEPRVIDLWDLEQSANLTDKELEAFREELKHFEAKIEKHNHYQKQLEIAHEKLRHAESVGDGERVSRSREKHALLEGRTKELGYTVKKHLQDLSGRISRAR
modifications: hexahistidine and S-peptide tags
For the molecule B1, the “binding relative to that for LRP1 CR3-5” value in the test with LRP2 CR34-36 and with LRP2 CR3536 was “less than 5%” each time.

B2: MegaRAP1 d3: d3 of RAP variant selected on LRP2 CR89: S213T, E217K, H249Y, E251K, K256A, K270E (SEQ ID NO: 93) (protein, listed as Homo sapiens)
chain: B1 chain with E51K, K56A, K70D
B2: the “binding (in words)” value (in test [1]; with LRP2 CR89 V1047D (YDWR)) was “failed to bind measurably” each time.
